Experiments:
GST-WRNIP1 [1] = target: T1, GST-WRNIP1 (Homo sapiens, UniProt Q96S55 1-665); assay: fluorescence anisotropy; Hill n 0.95; Anisotropy: 10 nM DNA, 50 mM Tris-HCl pH 7.5, 90 mM KCl, 5 mM EDTA, with or without 1 mM ATP and 1.25 mM MgCl2, 25 C; EMSA: 50 nM DNA, 50 mM Tris-HCl pH 7.5, 150 mM KCl, 15 min 25 C, 6% native gel; DNA folded in 25 mM Tris-HCl pH 7.5, 50 mM KCl; settings: protein: recombinant; (GST fusion); label: 5' FITC; intramolecular G4 with 3' ssDNA tail
T1 sequence: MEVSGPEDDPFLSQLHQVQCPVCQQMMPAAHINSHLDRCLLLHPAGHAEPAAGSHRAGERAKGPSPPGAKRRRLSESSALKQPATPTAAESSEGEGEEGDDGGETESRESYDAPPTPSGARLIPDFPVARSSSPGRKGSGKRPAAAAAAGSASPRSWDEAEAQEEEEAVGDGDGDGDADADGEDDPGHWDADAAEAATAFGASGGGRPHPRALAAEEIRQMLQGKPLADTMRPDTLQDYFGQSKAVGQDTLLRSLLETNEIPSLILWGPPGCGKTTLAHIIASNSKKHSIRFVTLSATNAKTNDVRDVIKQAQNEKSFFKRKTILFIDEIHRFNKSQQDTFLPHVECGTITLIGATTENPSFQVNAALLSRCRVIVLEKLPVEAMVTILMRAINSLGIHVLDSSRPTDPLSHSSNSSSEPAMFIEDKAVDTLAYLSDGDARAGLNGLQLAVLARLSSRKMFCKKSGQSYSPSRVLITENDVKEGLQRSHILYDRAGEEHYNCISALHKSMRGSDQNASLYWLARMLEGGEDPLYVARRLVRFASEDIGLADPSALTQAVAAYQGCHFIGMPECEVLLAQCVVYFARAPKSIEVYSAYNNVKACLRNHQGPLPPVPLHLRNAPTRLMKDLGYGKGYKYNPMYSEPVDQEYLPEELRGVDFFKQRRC

GST-WRNIP1 [2] = target: T1, GST-WRNIP1; assay: fluorescence anisotropy; Hill n 1.1; Anisotropy: 10 nM DNA, 50 mM Tris-HCl pH 7.5, 90 mM KCl, 5 mM EDTA, with or without 1 mM ATP and 1.25 mM MgCl2, 25 C; EMSA: 50 nM DNA, 50 mM Tris-HCl pH 7.5, 150 mM KCl, 15 min 25 C, 6% native gel; DNA folded in 25 mM Tris-HCl pH 7.5, 50 mM KCl; settings: protein: recombinant; (GST fusion); label: 5' FITC on strand 1; 21 bp duplex at 3' end of strand 1; 5' ss G4 overhang 27 nt; strand 2 5' TTT overhang
GST-WRNIP1 [3] = target: T1, GST-WRNIP1; assay: fluorescence anisotropy; Hill n 0.96; Anisotropy: 10 nM DNA, 50 mM Tris-HCl pH 7.5, 90 mM KCl, 5 mM EDTA, with or without 1 mM ATP and 1.25 mM MgCl2, 25 C; EMSA: 50 nM DNA, 50 mM Tris-HCl pH 7.5, 150 mM KCl, 15 min 25 C, 6% native gel; DNA folded in 25 mM Tris-HCl pH 7.5, 50 mM KCl; settings: protein: recombinant; (GST fusion); label: 5' FITC
GST-WRNIP1 [4] = target: T1, GST-WRNIP1; assay: fluorescence anisotropy; Hill n 0.55; Anisotropy: 10 nM DNA, 50 mM Tris-HCl pH 7.5, 90 mM KCl, 5 mM EDTA, with or without 1 mM ATP and 1.25 mM MgCl2, 25 C; EMSA: 50 nM DNA, 50 mM Tris-HCl pH 7.5, 150 mM KCl, 15 min 25 C, 6% native gel; DNA folded in 25 mM Tris-HCl pH 7.5, 50 mM KCl; settings: protein: recombinant; (GST fusion); label: 5' FITC; intramolecular G4 with 3' ssDNA tail of 21 nt
GST-WRNIP1 [5] = target: T1, GST-WRNIP1; assay: fluorescence anisotropy; 1 mM ATP; Hill n 0.66; Anisotropy: 10 nM DNA, 50 mM Tris-HCl pH 7.5, 90 mM KCl, 5 mM EDTA, with or without 1 mM ATP and 1.25 mM MgCl2, 25 C; EMSA: 50 nM DNA, 50 mM Tris-HCl pH 7.5, 150 mM KCl, 15 min 25 C, 6% native gel; DNA folded in 25 mM Tris-HCl pH 7.5, 50 mM KCl; settings: protein: recombinant; (GST fusion); label: 5' FITC; intramolecular G4 with 3' ssDNA tail of 21 nt
GST-WRNIP1 [6] = target: T1, GST-WRNIP1; assay: fluorescence anisotropy; no ATP (ATP comparison series); Hill n 0.72; Anisotropy: 10 nM DNA, 50 mM Tris-HCl pH 7.5, 90 mM KCl, 5 mM EDTA, with or without 1 mM ATP and 1.25 mM MgCl2, 25 C; EMSA: 50 nM DNA, 50 mM Tris-HCl pH 7.5, 150 mM KCl, 15 min 25 C, 6% native gel; DNA folded in 25 mM Tris-HCl pH 7.5, 50 mM KCl; settings: protein: recombinant; (GST fusion); label: 5' FITC; intramolecular G4 with 3' ssDNA tail of 21 nt
GST-WRNIP1 [7] = target: T1, GST-WRNIP1; assay: fluorescence anisotropy; Hill n 0.88; Anisotropy: 10 nM DNA, 50 mM Tris-HCl pH 7.5, 90 mM KCl, 5 mM EDTA, with or without 1 mM ATP and 1.25 mM MgCl2, 25 C; EMSA: 50 nM DNA, 50 mM Tris-HCl pH 7.5, 150 mM KCl, 15 min 25 C, 6% native gel; DNA folded in 25 mM Tris-HCl pH 7.5, 50 mM KCl; settings: protein: recombinant; (GST fusion); label: 5' FITC on strand 1; 21 bp duplex at 3' end of strand 1; 5' ss G4 overhang 21 nt; strand 2 5' TTT overhang

## AAGGGTGGGTGTAAGTGTGGGTGGGTGCGTCTGCGGCTGGCTCGAGGC (structured_DNA) [CEB G4 ss (CEB25)]
GST-WRNIP1 [1]
  Kd: 65 ± 6 nM

B1: CEB G4 partial duplex (structured_DNA)
DNA 1: AAGGGTGGGTGTAAGTGTGGGTGGGTGCGTCTGCGGCTGGCTCGAGGC
DNA 2: TTTGCCTCGAGCCAGCCGCAGACG
GST-WRNIP1 [2]
  Kd: 221 ± 44 nM

## ACTCCCACCCATCCCACCCACGCAGACGCCGACCGAGCTCCG (ssDNA) [C-rich control]
GST-WRNIP1 [3]
  Kd: 3.5 ± 0.511 µM

## TGAGGGTGGGTAGGGTGGGTGCGTCTGCGGCTGGCTCGAGGC (structured_DNA) [MYC G4 ss (Myc2345)]
GST-WRNIP1 [4]
  Kd: 184 ± 36 nM
GST-WRNIP1 [5]
  Kd: 183 ± 52 nM
GST-WRNIP1 [6]
  Kd: 175 ± 43 nM

B2: MYC G4 partial duplex (structured_DNA)
DNA 1: TGAGGGTGGGTAGGGTGGGTGCGTCTGCGGCTGGCTCGAGGC
DNA 2: TTTGCCTCGAGCCAGCCGCAGACG
GST-WRNIP1 [7]
  Kd: 108 ± 45 nM
